Experimental data published in patent US20180155451A1 (published 2018).
Substitutions are numbered along the chain they refer to. In names and notes the source's numbering stands. Each block holds one binder with its values, some of them ahead of it.

Key:
[1] = molecular target: T1, FcgRIIaR (human, UniProt P12318 34-217); experiment: SPR (Biacore), antibody captured on chip, FcgR as analyte
T1 construct: extracellular domain; R131 allotype; also called FcγRIIa R; FcgRIIa type R; not shown: C-terminal His tag
T1 sequence (looked up): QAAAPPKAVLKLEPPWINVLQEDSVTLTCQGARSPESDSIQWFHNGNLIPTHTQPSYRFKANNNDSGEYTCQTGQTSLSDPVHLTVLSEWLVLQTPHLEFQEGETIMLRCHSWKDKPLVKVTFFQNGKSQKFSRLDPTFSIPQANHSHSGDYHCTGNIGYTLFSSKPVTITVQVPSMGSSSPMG

[2] = molecular target: T2, FcgRIIb (human, UniProt P31994 43-217); experiment: as above
T2 construct: extracellular domain; also called FcγRIIb; CD32B; not shown: C-terminal His tag
T2 sequence (looked up): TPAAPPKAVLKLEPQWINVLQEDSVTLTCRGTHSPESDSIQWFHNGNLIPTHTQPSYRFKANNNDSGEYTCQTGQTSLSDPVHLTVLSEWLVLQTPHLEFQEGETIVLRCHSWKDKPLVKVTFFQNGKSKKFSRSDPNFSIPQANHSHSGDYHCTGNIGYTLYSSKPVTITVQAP

[3] = molecular target: T3, FcgRIIIaF (human, UniProt P08637 17-208); experiment: as above
T3 construct: extracellular domain; F158 allotype; also called FcγRIIIa F; not shown: C-terminal His tag

[4] = molecular target: T4, FcgRIIIaV (human, UniProt P08637 17-208); experiment: as above
T4 construct: extracellular domain; V158 allotype; also called FcγRIIIa V; not shown: C-terminal His tag

[5] = molecular target: T5, FcgRIIaH (human, UniProt P12318 34-217); experiment: as above
T5 construct: extracellular domain; H131 allotype; also called FcγRIIa H; FcgRIIa type H; not shown: C-terminal His tag
T5 sequence (looked up): T1 sequence (looked up) with R134H

[6] = molecular target: T1, FcgRIIaR; experiment: SPR (Biacore); KD of H240-Kn120/H240-Hl068/L73-k0 divided by KD of the sample
[7] = molecular target: T2, FcgRIIb; experiment: as above
[8] = molecular target: T3, FcgRIIIaF; experiment: as above
[9] = molecular target: T4, FcgRIIIaV; experiment: as above
[10] = molecular target: T5, FcgRIIaH; experiment: as above
[11] = molecular target: T6, FcgRIa (human, UniProt P12314 16-292); experiment: SPR (Biacore 4000), antibody captured on chip, FcgR as analyte; kd below the limit 5e-5 /s
T6 construct: extracellular domain; also called FcγRIa; FcγRI; not shown: C-terminal His tag
Method: The variants described above were assessed for their binding to FcgR according to the method described in Reference Example 8.
Analysis of interaction between obj ective antibody and the FcγR was carried out using Biacore T100 (GE Healthcare), Biacore T200, Biacore A100, and Biacore 4000. HBS-EP+ (GE Healthcare) was used as the running buffer, and the measurement temperature was set to 25° C. Chips produced by immobilizing the antigen peptide by the amine coupling method to a Series S sensor Chip CM5 (GE Healthcare), chips produced by allowing preliminarily biotinylated antigen peptides to interact with and immobilize onto a Series S Sensor Chip SA (certified) (GE Healthcare), chips produced by immobilizing Protein L (ACTIGEN, BioVision) to Series S Sencor Chip CM5 (GE Healthcare), or chips produced by immobilizing Protein A/G (Thermo Scientific) to Series S Sencor Chip CM5 (GE Healthcare) were used. Antibodies of interest were captured onto these chips, and allowed to interact to each FcγR diluted with running buffer. To regenerate and repeatedly use the chip, the antibodies captured onto the chip were washed off by reacting 10 mM glycine-HCl, pH 1.5.

[12] = molecular target: T7, FcγRIIb (human, UniProt P31994 43-217); experiment: SPR (Biacore), relative binding; compared with GpH7-A5/GpH7-B12/GpL16-k0
T7 construct: extracellular domain; for crystallography expressed with Kifunesine and trimmed with Endo F1; also called FcgRIIb; FcgR2b; not shown: His tag attached to the C terminus
T7 sequence (looked up): T2 sequence (looked up)
Method: (§1) Analysis of interaction between objective antibody and the FcγR was carried out using Biacore T100 (GE Healthcare). HBS-EP+ (GE Healthcare) was used as the running buffer, and the measurement temperature was set to 25° C. Chips produced by immobilizing the antigen peptide by the amine coupling method to a Series S Sencor Chip CM5 (GE Healthcare), or alternatively, chips produced by allowing preliminarily biotinylated antigen peptides to interact with and immobilize onto a Series S Sensor Chip SA (certified) (GE Healthcare) were used. Antibodies of interest were captured onto an antigen peptide-immobilized chip, and allowed to interact to each FcγR diluted with running buffer. To regenerate and repeatedly use the chip, the antibodies captured on the chip were washed off by reacting 10 mM glycine-HCl, pH 1.5.

[13] = molecular target: T8, FcγRIIIa (human, UniProt P08637 17-208); experiment: SPR (Biacore T100); antibody captured on an antigen peptide chip, FcγRIIIa as analyte; 1:1 Langmuir kinetic fit
T8 construct: extracellular domain; The protein is soluble, His-tagged, and was expressed in FreeStyle293 cells; also called FcgRIIIa; CD16A; not shown: His tag attached to the C terminus
Method: (§2) Then, K334G was also assessed in the same manner. GpH7-TA40 (SEQ ID NO: 47) resulting from the introduction of K334G into GpH7-TA7 was constructed, and expressed and prepared in combination with GpH7-B78 according to the method described in Reference Example 1. Furthermore, GpH7-TA50 (SEQ ID NO: 48) resulting from the introduction of K334G into GpH7-B78 was constructed, and expressed and prepared in combination with GpH7-TA7 according to the method described in Reference Example 1. To assess the effect of combinations with K334G, the prepared antibodies were compared for the FcγRIIIa binding according to the method described in Reference Example 2 (Table 18).
as §1

[14] = molecular target: T8, FcγRIIIa; experiment: SPR (Biacore); KD of GpH7-TA7/GpH7-B78/GpL16-k0 for FcγRIIIa divided by the KD of this antibody (the reference itself)
Method: as §2
as §1, with “To regenerate and repeatedly use the chip, the antibodies captured on the chip were washed off by reacting 10 mM glycine-HCl, pH 1.5.” left out

[15] = molecular target: T7, FcγRIIb; experiment: SPR (Biacore), relative binding; compared with GpH7-A48/GpH7-B3/GpL16-k0
Method: as §1

T8 sequence (P08637 17-208): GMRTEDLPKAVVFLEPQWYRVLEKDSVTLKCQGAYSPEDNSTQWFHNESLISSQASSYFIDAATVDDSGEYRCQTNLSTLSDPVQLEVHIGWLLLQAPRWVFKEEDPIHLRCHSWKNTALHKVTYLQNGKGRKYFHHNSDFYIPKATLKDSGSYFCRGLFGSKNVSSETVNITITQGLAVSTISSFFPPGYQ
T3 sequence (P08637 17-208): as above
T4 sequence (P08637 17-208 F176V limits assumed): as the sequence (P08637 17-208) above, with F160V counted along it
T6 sequence (P12314 16-292): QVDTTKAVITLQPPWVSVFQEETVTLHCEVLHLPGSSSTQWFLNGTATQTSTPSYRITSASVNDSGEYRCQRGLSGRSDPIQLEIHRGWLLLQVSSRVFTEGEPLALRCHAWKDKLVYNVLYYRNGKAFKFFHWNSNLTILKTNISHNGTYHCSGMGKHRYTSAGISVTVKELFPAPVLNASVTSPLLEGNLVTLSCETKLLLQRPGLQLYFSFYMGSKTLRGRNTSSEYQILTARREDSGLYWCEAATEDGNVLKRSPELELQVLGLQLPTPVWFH

Kd [1]: 15 nM
Kd [2]: 210 nM
Kd [3]: 8.2 nM
Kd [4]: 1.8 nM
Kd [5]: 21 nM
Relative KD [6]: 1.3
Relative KD [7]: 0.7
Relative KD [8]: 0.3
Relative KD [9]: 0.2
Relative KD [10]: 2
Kd [11]: < 0.028 nM
B1: H240-Kn120/H240-Hl073/L73-k0 (antibody, human IgG1, kappa)
heavy 1: QDQLVQSGAEVKKPGASVKVSCKASGFNIKDTYIQWVRQAPGQGLEWMGRIDPLRKQTKYREKFEGRVTITADTSTNTAYMELSSLRSEDTAVYYCVRSGREFDYWGQGTLVTVSSASTKGPSVFPLAPSSKSTSGGTAALGCLVKDYFPEPVTVSWNSGALTSGVHTFPAVLQSSGLYSLSSVVTVPSSSLGTQTYICNVNHKPSNTKVDKKVEPKSCDKTHTCPPCPAPEYYWGPMVFLFPPKPKDTLMISRTPEVTCVVVDVSDEDPEVKFNWYVDGVEVHNAKTKPREEQYNATYRVVSVLTVLHQDWLNGKEYKCKVSNKDLPAPIEKTISKAKGQPREPQVCTLPPSRDELTKNQVSLWCLVKGFYPSDIAVEWESNGQPENNYKTTPPVLDSDGSFFLYSKLTVDKSRWQQGNVFSCSVMHEALHNHYTQKSLSLSP
heavy 2: QDQLVQSGAEVKKPGASVKVSCKASGFNIKDTYIQWVRQAPGQGLEWMGRIDPLRKQTKYREKFEGRVTITADTSTNTAYMELSSLRSEDTAVYYCVRSGREFDYWGQGTLVTVSSASTKGPSVFPLAPSSKSTSGGTAALGCLVKDYFPEPVTVSWNSGALTSGVHTFPAVLQSSGLYSLSSVVTVPSSSLGTQTYICNVNHKPSNTKVDKKVEPKSCDKTHTCPPCPAPELLSGPSVFLFPPKPKDTLMISRTPEVTCVVVDVSHEEPEVKFNWYVDGVEVHNAKTKPREEQYNSTYRVVSVLTVLHQDWLNGKEYKCKVSNDALPKPIEETISKAKGQPREPQVYTLPPSRCELTKNQVSLSCAVKGFYPSDIAVEWESNGQPENNYKTTPPVLDSDGSFFLVSKLTVDKSRWQQGNVFSCSVMHEALHNHYTQKSLSLSP
light: DIQMTQSPSSLSASVGDRVTITCRASQDIHKYIAWYQQKPGQAPRLLIQYTSTLQPGVPSRFSGSGSGTDYTFTISSLQPEDIATYYCLQYEQLRTFGGGTKVEIKRTVAAPSVFIFPPSDEQLKSGTASVVCLLNNFYPREAKVQWKVDNALQSGNSQESVTEQDSKDSTYSLSSTLTLSKADYEKHKVYACEVTHQGLSSPVTKSFNRGEC
notes: Heterodimerized anti-epiregulin antibody; G236S in the Hl068 chain; also called H240-Kn120/H240-HI073/L73-k0

binding result [12]: binds
B2: GpH7-A5/GpH7-B41/GpL16-k0 (antibody, human IgG1, kappa)
heavy 1: not shown
heavy 2: QVQLVQSGAEVKKPGASVTVSCKASGYTFTDYEMHWIRQPPGEGLEWIGAIDPKTGDTAYSESFQDRVTLTADKSTSTAYMELSSLTSEDTAVYYCTRFYSYTYWGQGTLVTVSSASTKGPSVFPLAPSSKSTSGGTAALGCLVKDYFPEPVTVSWNSGALTSGVHTFPAVLQSSGLYSLSSVVTVPSSSLGTQTYICNVNHKPSNTKVDKKVEPKSCDKTHTCPPCPAPEDLGGPSVFLFPPKPKDTLMISRTPEVTCVVVDVSHEDPEVKFNWYVDGVEVHNAKTKPREEQYNSTYRVVSVLTVLHQDWLNGKEYKCKVSNKALRAPIEKTISKAKGQPREPQVYTLPPSRDELTKNQVSLTCLVKGFYPSDIAVEWESNGQPENNYKTTPPVLDSDGSFFLYSKLTVDKSRWQQGNVFSCSVMHEALHNHYTQESLSLSP
light: DIVMTQSPLSLPVTPGEPASISCQASESLVHSNRNTYLHWYLQKPGQSPQLLIYKVSNRFSGVPDRFSGSGSGTDFTLKISRVEAEDVGVYYCSQNTHVPPTFGQGTKVEIERTVAAPSVFIFPPSDEQLKSGTASVVCLLNNFYPREAKVQWKVDNALQSGNSQESVTEQDSKDSTYSLSSTLTLSKADYEKHKVYACEVTHQGLSSPVTKSFNRGEC
notes: L234D and P329R in the same H chain

Kd [13]: 4.1 nM
KD ratio [14]: 1
B3: GpH7-TA7/GpH7-B78/GpL16-k0 (antibody, human IgG1, kappa)
heavy 1: B2 heavy 2 with D232Y, G234W, S296A, R327P, D354K, H433R, E437K
heavy 2: B2 heavy 2 with D232L, S237D, R327P, A328L, I330E
light: B2 light
notes: Heterodimerized anti-glypican-3 IgG1 antibody with two different H chains and a common L chain; also called TA7/B78

binding result [15]: binds
B4: GpH7-A45/GpH7-B3/GpL16-k0 (antibody, human IgG1, kappa)
heavy 1: B2 heavy 2 with D232L, G235A, D354K, H433R, E437K
heavy 2: not shown
light: B2 light
notes: G237A and P329R in the same H chain
